From patent CN108503707A (ZHEJIANG ACAD MEDICAL SCIENCES, dated 2018)

Target: T1, 弓形虫重组SAG1蛋白(表面膜抗原1) (Toxoplasma gondii, UniProt P13664 48-306, limits assumed)
T1 construct: The vector tag (pET28a, Ni-NTA purified) is not described; In the BLI programme the loading step is called biotinylated antigen, but the sensor is APS; also called SAG1-m; SAG1重组抗原
T1 sequence (looked up): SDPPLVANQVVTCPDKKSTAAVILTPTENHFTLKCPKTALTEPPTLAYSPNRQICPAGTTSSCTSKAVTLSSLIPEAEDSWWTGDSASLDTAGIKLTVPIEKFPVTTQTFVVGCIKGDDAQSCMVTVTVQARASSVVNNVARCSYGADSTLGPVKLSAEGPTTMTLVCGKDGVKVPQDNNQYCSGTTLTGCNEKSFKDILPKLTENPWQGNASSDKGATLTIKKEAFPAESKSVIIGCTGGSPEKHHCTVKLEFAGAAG
Experiment: BLI (ForteBio Octet Red), SAG1 on APS sensor, nanobody at 6.25-100 nM

B1: 1号克隆株抗SAG1纳米抗体 (VHH)
VHH: HVQLVESGGGSVQAGGSLKLSCTASGYTSNNNCMAWYRQAPGKEPEGVAGIDSEGTTRYADSVKGRFTISKDNAKNTLYLQMNSLKPEDTGMYYCGAGPDRPARCQYDVWGQGTQVTVSS
notes: Tags or fusion parts from the vectors are not described; also called SAG1-1; 一号克隆株抗SAG1纳米抗体
Kd: 1.66 nM
